The supplement of paper PMC9112550, “Optimization of the antimicrobial peptide Bac7 by deep mutational scanning” (BMC Biology, 2022)

System: Escherichia coli TOP10
Experiment: shrunken log2 fold change of peptide-encoding DNA abundance (4.5 h post-induction vs induction); higher = less antimicrobial activity (less host growth inhibition)
Details: time post-induction: 4.5 h; library: site-saturation at positions 5, 18, 19, 20
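Note: peptides expressed intracellularly from a pBAD plasmid library in pooled LB shake-flask culture, induced with 0.3% L-arabinose, DNA abundance read by NGS, three biological replicates, DESeq2 with apeglm shrinkage.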

Sequence	shrunken log2 fold change
RRIRTRPPRLPRPRPRPCYMPRP	-0.156
RRIRTRPPRLPRPRPRPCYWPRP	0.0189
RRIRTRPPRLPRPRPRPDDGPRP	0.02
RRIRTRPPRLPRPRPRPDDTPRP	-0.12
RRIRTRPPRLPRPRPRPDEGPRP	-0.0183
RRIRTRPPRLPRPRPRPDENPRP	0.0019
RRIRTRPPRLPRPRPRPDFGPRP	-0.0474
RRIRTRPPRLPRPRPRPDGGPRP	-0.145
RRIRTRPPRLPRPRPRPDGTPRP	-0.208
RRIRTRPPRLPRPRPRPDHWPRP	0.0335
RRIRTRPPRLPRPRPRPDHYPRP	-0.66
RRIRTRPPRLPRPRPRPDIHPRP	-0.357
RRIRTRPPRLPRPRPRPDIKPRP	-0.197
RRIRTRPPRLPRPRPRPDKGPRP	0.0109
RRIRTRPPRLPRPRPRPDMWPRP	-0.126
RRIRTRPPRLPRPRPRPDNLPRP	-0.479
RRIRTRPPRLPRPRPRPDNPPRP	-0.371
RRIRTRPPRLPRPRPRPDQLPRP	-0.0381
RRIRTRPPRLPRPRPRPDTCPRP	-0.0125
RRIRTRPPRLPRPRPRPDVPPRP	-0.0167
RRIRTRPPRLPRPRPRPEAAPRP	0.574
RRIRTRPPRLPRPRPRPEARPRP	0.552
RRIRTRPPRLPRPRPRPEDCPRP	0.0288
RRIRTRPPRLPRPRPRPEDYPRP	-0.00822
RRIRTRPPRLPRPRPRPEGMPRP	0.18

Sequence	shrunken log2 fold change
RRIRTRPPRLPRPRPRPEGTPRP	0.0681
RRIRTRPPRLPRPRPRPEHWPRP	-0.00863
RRIRTRPPRLPRPRPRPEIRPRP	-0.0371
RRIRTRPPRLPRPRPRPEKQPRP	-0.0379
RRIRTRPPRLPRPRPRPELIPRP	-0.0864
RRIRTRPPRLPRPRPRPELLPRP	0.39
RRIRTRPPRLPRPRPRPEMCPRP	-0.00146
RRIRTRPPRLPRPRPRPEMGPRP	-0.0368
RRIRTRPPRLPRPRPRPEMIPRP	0.0294
RRIRTRPPRLPRPRPRPEMQPRP	-0.00136
RRIRTRPPRLPRPRPRPEMRPRP	0.825
RRIRTRPPRLPRPRPRPENDPRP	-0.0847
RRIRTRPPRLPRPRPRPENHPRP	-0.119
RRIRTRPPRLPRPRPRPEPPPRP	0.395
RRIRTRPPRLPRPRPRPEQVPRP	-0.00471
RRIRTRPPRLPRPRPRPESQPRP	-0.0324
RRIRTRPPRLPRPRPRPETCPRP	-0.0408
RRIRTRPPRLPRPRPRPEVSPRP	-0.28
RRIRTRPPRLPRPRPRPEYWPRP	-0.00483
RRIRTRPPRLPRPRPRPFCVPRP	-0.229
RRIRTRPPRLPRPRPRPFDQPRP	0.176
RRIRTRPPRLPRPRPRPFDWPRP	0.0371
RRIRTRPPRLPRPRPRPFEQPRP	-0.225
RRIRTRPPRLPRPRPRPFFGPRP	0.0239
RRIRTRPPRLPRPRPRPFFLPRP	-0.299

Sequence	shrunken log2 fold change
RRIRTRPPRLPRPRPRPFFMPRP	-0.231
RRIRTRPPRLPRPRPRPFGIPRP	-0.338
RRIRTRPPRLPRPRPRPFGNPRP	0.101
RRIRTRPPRLPRPRPRPFGQPRP	-0.0675
RRIRTRPPRLPRPRPRPFHWPRP	0.036
RRIRTRPPRLPRPRPRPFIFPRP	-0.447
RRIRTRPPRLPRPRPRPFITPRP	-0.689
RRIRTRPPRLPRPRPRPFIWPRP	-0.485
RRIRTRPPRLPRPRPRPFKSPRP	-0.0217
RRIRTRPPRLPRPRPRPFKVPRP	0.0475
RRIRTRPPRLPRPRPRPFLDPRP	-0.553
RRIRTRPPRLPRPRPRPFLIPRP	-0.378
RRIRTRPPRLPRPRPRPFMIPRP	-0.0265
RRIRTRPPRLPRPRPRPFPVPRP	-0.177
RRIRTRPPRLPRPRPRPFSHPRP	-0.399
RRIRTRPPRLPRPRPRPFTDPRP	0.00943
RRIRTRPPRLPRPRPRPFTWPRP	-0.308
RRIRTRPPRLPRPRPRPFWIPRP	-0.34
RRIRTRPPRLPRPRPRPFWNPRP	-0.104
RRIRTRPPRLPRPRPRPFYEPRP	-0.518
RRIRTRPPRLPRPRPRPFYKPRP	-0.6
RRIRTRPPRLPRPRPRPFYQPRP	-0.65
RRIRTRPPRLPRPRPRPFYWPRP	-0.348
RRIRTRPPRLPRPRPRPGACPRP	-0.234
RRIRTRPPRLPRPRPRPGEMPRP	0.136

Sequence	shrunken log2 fold change
RRIRTRPPRLPRPRPRPGGWPRP	1.23
RRIRTRPPRLPRPRPRPGIQPRP	0.131
RRIRTRPPRLPRPRPRPGKDPRP	0.0234
RRIRTRPPRLPRPRPRPGLWPRP	0.521
RRIRTRPPRLPRPRPRPGMSPRP	-0.352
RRIRTRPPRLPRPRPRPGNGPRP	-0.222
RRIRTRPPRLPRPRPRPGPWPRP	0.215
RRIRTRPPRLPRPRPRPGQEPRP	-0.184
RRIRTRPPRLPRPRPRPGQFPRP	-0.182
RRIRTRPPRLPRPRPRPGQSPRP	-0.267
RRIRTRPPRLPRPRPRPGRIPRP	-0.171
RRIRTRPPRLPRPRPRPGRWPRP	0.393
RRIRTRPPRLPRPRPRPGSCPRP	0.083
RRIRTRPPRLPRPRPRPGSPPRP	0.0989
RRIRTRPPRLPRPRPRPGSWPRP	0.844
RRIRTRPPRLPRPRPRPGTHPRP	-0.0792
RRIRTRPPRLPRPRPRPGTIPRP	-0.0982
RRIRTRPPRLPRPRPRPGVMPRP	0.0539
RRIRTRPPRLPRPRPRPGWEPRP	0.0505
RRIRTRPPRLPRPRPRPGWWPRP	0.158
RRIRTRPPRLPRPRPRPGYEPRP	-0.0417
RRIRTRPPRLPRPRPRPGYNPRP	-0.957
RRIRTRPPRLPRPRPRPHAKPRP	0.0187
RRIRTRPPRLPRPRPRPHANPRP	-0.254
RRIRTRPPRLPRPRPRPHAQPRP	0.211

Sequence	shrunken log2 fold change
RRIRTRPPRLPRPRPRPHDFPRP	0.0369
RRIRTRPPRLPRPRPRPHDMPRP	0.000904
RRIRTRPPRLPRPRPRPHFKPRP	-0.307
RRIRTRPPRLPRPRPRPHHLPRP	0.0331
RRIRTRPPRLPRPRPRPHIPPRP	-0.769
RRIRTRPPRLPRPRPRPHIRPRP	-0.271
RRIRTRPPRLPRPRPRPHKHPRP	-0.417
RRIRTRPPRLPRPRPRPHLPPRP	0.236
RRIRTRPPRLPRPRPRPHMCPRP	-0.195
RRIRTRPPRLPRPRPRPHNEPRP	-0.581
RRIRTRPPRLPRPRPRPHPPPRP	0.271
RRIRTRPPRLPRPRPRPHPYPRP	0.0733
RRIRTRPPRLPRPRPRPHVHPRP	-0.511
RRIRTRPPRLPRPRPRPHVQPRP	-0.156
RRIRTRPPRLPRPRPRPHVVPRP	-0.0414
RRIRTRPPRLPRPRPRPHWFPRP	-0.132
RRIRTRPPRLPRPRPRPHWLPRP	0.122
RRIRTRPPRLPRPRPRPHYIPRP	-0.105
RRIRTRPPRLPRPRPRPIALPRP	-0.156
RRIRTRPPRLPRPRPRPIATPRP	0.227
RRIRTRPPRLPRPRPRPICGPRP	0.0749
RRIRTRPPRLPRPRPRPIDFPRP	0.0107
RRIRTRPPRLPRPRPRPIDSPRP	-0.162
RRIRTRPPRLPRPRPRPIFDPRP	-0.337
RRIRTRPPRLPRPRPRPIGAPRP	0.089

Sequence	shrunken log2 fold change
RRIRTRPPRLPRPRPRPIGKPRP	0.0128
RRIRTRPPRLPRPRPRPIGLPRP	-0.115
RRIRTRPPRLPRPRPRPIHRPRP	-0.00127
RRIRTRPPRLPRPRPRPIIAPRP	0.00466
RRIRTRPPRLPRPRPRPIICPRP	-0.121
RRIRTRPPRLPRPRPRPIITPRP	-0.645
RRIRTRPPRLPRPRPRPIKDPRP	-0.104
RRIRTRPPRLPRPRPRPIKYPRP	4.24
RRIRTRPPRLPRPRPRPINMPRP	-0.0135
RRIRTRPPRLPRPRPRPIPIPRP	-0.0307
RRIRTRPPRLPRPRPRPIQFPRP	-0.0251
RRIRTRPPRLPRPRPRPIRAPRP	-0.0672
RRIRTRPPRLPRPRPRPIRHPRP	-0.438
RRIRTRPPRLPRPRPRPIRIPRP	-0.202
RRIRTRPPRLPRPRPRPISMPRP	-0.262
RRIRTRPPRLPRPRPRPISRPRP	-0.0253
RRIRTRPPRLPRPRPRPITPPRP	-0.237
RRIRTRPPRLPRPRPRPITWPRP	-0.252
RRIRTRPPRLPRPRPRPIVDPRP	0.0147
RRIRTRPPRLPRPRPRPIWEPRP	-0.178
RRIRTRPPRLPRPRPRPIWIPRP	-0.00704
RRIRTRPPRLPRPRPRPIWLPRP	-0.201
RRIRTRPPRLPRPRPRPIWVPRP	-0.0869
RRIRTRPPRLPRPRPRPIWYPRP	-0.601
RRIRTRPPRLPRPRPRPIYAPRP	0.0866
